± gives the uncertainty stated by the source.
Assay: amyloid nucleation score (Sup35N fusion, yeast selection) (log enrichment); library NNK3; higher = more nucleation; inactive = no reads after selection
Summary of the method: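 Peptides of 20 random codons, each fused to Sup35N, were expressed in psi-negative yeast. Cells were induced with 100 μM copper sulfate for 24 hours and grown 7 days at 30°C on medium lacking adenine and uracil, and plasmid inserts before and after selection were Illumina-sequenced. Nucleation scores are DiMSum log enrichments of output over input reads, centred on the mode score of non-aggregating sequences, and sequences under 100 input reads were excluded.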

Row | Substance | amyloid nucleation score
1 | RAYGPGRSASEALGRLCVGL | inactive
2 | RCAPFNFFPCHIWRYVLTRK | inactive
3 | RCCFWVMLFNYARGKRTWCH | inactive
4 | RCDNKF | 1.2 ± 0.17
5 | RCGEDNLQGSLSTSTVGNLV | inactive
6 | RCHYSSWWESPCQSVM | inactive
7 | RCLLYTAY | inactive
8 | RCMTHRTLAHENRFVHTRCW | inactive
9 | RCPTPTWSINGPC | inactive
10 | RCRLSKANFRHWNKEVKWTF | inactive
11 | RCRTDILYNFERHYLRVEYA | inactive
12 | RCSCCCCNALANDRRVCMVE | inactive
13 | RCSRWNWCVVAG | inactive
14 | RCTVDVFMHCSKLSNAELSL | 0.833 ± 0.12
15 | RDEASLSYMSPCRYDYCNCF | 0.003 ± 1
16 | RDGHIQMCFIWVKRDNCQVF | inactive
17 | RDHSTMQTEVLEWSRNPSMG | inactive
18 | RDISGMLYCYEGFYVF | inactive
19 | RDMPLMGVYKIPVDAFYSVS | inactive
20 | RDSFTVIVSSSSPMPKLVPE | inactive
21 | RDTYMGREVCFNNTPERF | 0.21 ± 0.77
22 | RDVCVHPNHFKCGAAMFPED | inactive
23 | RDVTC | inactive

Row | Substance | amyloid nucleation score
24 | RDYQCLQLYCRSASPIT | inactive
25 | RECVMETWSQVGRWFTCVRV | inactive
26 | RELFTFGVFRYQASL | 0.817 ± 0.22
27 | RESDMRSAWGSDVVCLLGDS | 1.11 ± 0.15
28 | RESNNLLFQQVGYLYYSWFY | 1.86 ± 0.078
29 | REVMWKICFRKINYVGYSGK | inactive
30 | RFCRRVHMRLDAVGTCVRWW | inactive
31 | RFESHSL | inactive
32 | RFFHYYVSNVWTSNPFSTYI | -0.42 ± 0.62
33 | RFFSFFIT | 2.44 ± 0.055
34 | RFGITLVFEYPAVEFVDTTI | inactive
35 | RFHDNFAAK | inactive
36 | RFHSSLCCNMVWF | 3.06 ± 0.06
37 | RFKKVVHSFRFCAIENVLDY | inactive
38 | RFLRRIIDIVMGQSGNWMIR | inactive
39 | RFNGDQMYFNLSFKISELFP | 1.09 ± 0.079
40 | RFNGVVQEIVFCWRYRFVGN | -0.631 ± 0.96
41 | RFPDLLQMVRAKAPDPLQQH | inactive
42 | RFTRMWTDWCAGLSGSLRCS | inactive
43 | RFWFMDFFSH | 1.89 ± 0.076
44 | RFYDYYTLQVRYMTLHATNG | inactive
45 | RFYTSCVCHHLLIYYLIGSS | inactive
46 | RGFAVSF | -0.678 ± 0.89

Row | Substance | amyloid nucleation score
47 | RGFNYKMLFSSDLD | inactive
48 | RGGGQDDYTRFLGSLNDVPV | inactive
49 | RGICFGYLGFM | 0.145 ± 0.3
50 | RGKCSNIETRIVRCWGGQVV | inactive
51 | RGMYMRYLGFLDHLNLRVFC | inactive
52 | RGTMLLRNISIVCQLYPLST | inactive
53 | RGTVSQFVMAVNWFTSFVKR | inactive
54 | RHFDSMTINLYTTSLTFFAN | inactive
55 | RHNARRWCTVSC | inactive
56 | RHVLQILLSKKRDATMLPNY | inactive
57 | RHVNCLAQLSDCKLTIM | 0.396 ± 0.38
58 | RHYKLGGSGTCDVSYGSCYD | inactive
59 | RIDRFCSFFNRSPSDCLLLS | inactive
60 | RIEYVVPITPM | inactive
61 | RIFLIICKMYYFRNNRLFRM | -0.508 ± 0.8
62 | RIKCMEIFERPCYFLFCLHK | inactive
63 | RILMCMLYAAGSMARYPIWG | inactive
64 | RILTDGIIVLFL | inactive
65 | RIRGMFGCPNNR | inactive
66 | RISSIAEDSSRAGASEHPGQ | -0.57 ± 1.8
67 | RITGSRFCHCDLVNCDATVC | inactive
68 | RIVGIYKGLLAD | inactive
69 | RKFTVSISRGNWSHAWTYSE | inactive

Row | Substance | amyloid nucleation score
70 | RKKTNCHINYFMDALFERLA | inactive
71 | RKTRDSCTMGSNTTWRVIFC | 0.158 ± 0.49
72 | RKVSSLVITRMAWMLSGNWL | 2.57 ± 0.051
73 | RKWMHMDASVCVTIYWDAGL | 0.38 ± 0.4
74 | RLAKSMH | inactive
75 | RLCSKRVKSTDGGSEHRMSW | inactive
76 | RLETMGLRNNVVCNSSEALQ | inactive
77 | RLFDLVYSGLVFRKHSHTAM | inactive
78 | RLFSRDLTSFCFLFFNFRWK | inactive
79 | RLFYCVSAVRIHVCGNSKLF | inactive
80 | RLGFRCSVLSDMLYVGVLGS | inactive
81 | RLLPFIGIYNFSKKWLSKAL | -0.313 ± 0.75
82 | RLMFWRELGLFSKFKLSIQG | inactive
83 | RLNCDCPAMHVCN | 2.35 ± 0.074
84 | RLNHKVFRSLCKKFLRWHGS | inactive
85 | RLPRRSEDIKALRMDIRLYR | inactive
86 | RLQMRSATLYCEGGSGAILY | inactive
87 | RLRYIGSILLLRRKVVFLMH | inactive
88 | RLSLDRRNVRPDDMVHASGG | inactive
89 | RLSLVFRHIAFTS | inactive
90 | RLSYRVNCLRCPNFWNRHMS | 1.93 ± 0.11
91 | RLVDLAWRCYKIDKCLTCSS | -0.589 ± 0.93
92 | RLVLYMPVLLSMVVTNWALL | 0.872 ± 0.15

Row | Substance | amyloid nucleation score
93 | RLVVLMCCIGYFGPADMNFA | 2.66 ± 0.08
94 | RLYNKSVTLAWRRFSGTKEL | inactive
95 | RMAYNFTKSR | inactive
96 | RMGVPTSYPDPDLSNDVER | inactive
97 | RMHMKLVGKG | inactive
98 | RMLPRLQDAR | inactive
99 | RMNCQFTGMSTFRPPLLGAR | inactive
100 | RMRSGSA | inactive
101 | RNCVSSGCCRRFSD | inactive
102 | RNCYCWASVDI | inactive
103 | RNGIVGD | inactive
104 | RNKSVVPHVLRELCFMVWLV | inactive
105 | RNLYSIRANMWLNRQLRKYS | inactive
106 | RNNCCAKVIYKWLSTFGQTD | inactive
107 | RNNDVSEVKMLMKRELGFYN | inactive
108 | RNSKLSCNVDTKSCFVECMN | inactive
109 | RNSRSLSLPCC | inactive
110 | RNTLARKFVIRFTIFNAWSN | 1.28 ± 0.11
111 | RNTMSFNDSFTNALLLKSVG | inactive
112 | RNVIANEGLCQKR | inactive
113 | RNVVAESRKSWGHCVRVTYT | inactive
114 | RPAGLWVTMWIYPVLRSTYV | inactive
115 | RPFLCYLTAPASMNNTLNQV | inactive

Row | Substance | amyloid nucleation score
116 | RPMKLRCASGWNVDTQFFDT | inactive
117 | RPNFDYTIWSMTNWILFTCD | inactive
118 | RPPHYQCMCSLVLSSRRNIQ | inactive
119 | RPSFLVGRFMTVLKSPRHDV | -0.692 ± 1.4
120 | RPSSLIYFSSPNTRHGSPTL | inactive
121 | RPVAFPIR | inactive
122 | RPVTPC | inactive
123 | RQHLFRSWEVQMSLSLDF | -0.379 ± 0.63
124 | RQISLYFSFNRFSMYFTLNL | inactive
125 | RQTTYHGGKWLCSSVSGMYN | inactive
126 | RRDCCGE | 0.17 ± 0.75
127 | RREPQCYYWGAYCSVAASPA | inactive
128 | RRFGAFCIVPFERIVLDGWE | inactive
129 | RRHAR | inactive
130 | RRQLLVGIP | inactive
131 | RRTVYRHF | inactive
132 | RRWSLRWNHLM | inactive
133 | RSFLIRFILDLVYIRRTRNV | -0.273 ± 1.1
134 | RSICV | inactive
135 | RSKNWAVIMIGR | inactive
136 | RSLNPWLYAVSLHYEQFVGV | inactive
137 | RSPTNV | inactive
138 | RSQFV | inactive

Row | Substance | amyloid nucleation score
139 | RSRDIGVFTGVQCLVRYRRY | inactive
140 | RSRNAIVLGACYC | inactive
141 | RSRSYRMGSLLVKSWILTLT | inactive
142 | RSSKSEGYGFVGVGI | inactive
143 | RSSSCLKTYLYLCGGWTSTF | 0.003 ± 0.26
144 | RSSSCVLFTAGTQNNRVFVV | inactive
145 | RSVSNVFRLCLDAWGKVRRH | inactive
146 | RSVVLNRADMECKQELVNLN | inactive
147 | RSYFC | inactive
148 | RTAVVWV | inactive
149 | RTCSLRCFCYCHLYFYDVNT | inactive
150 | RTGPTRALRVLHLDAMDALV | inactive
151 | RTKFWMRRKRLLPSILYNEL | inactive
152 | RTKKMRNGASHRVMS | inactive
153 | RTPHELKFRCSFQKVWQGMV | inactive
154 | RTRFVCICTSSNSLLYGRSS | 0.714 ± 0.25
155 | RTSFLGVID | inactive
156 | RTTINLLMCGHVMGFNSCLF | 1.99 ± 0.084
157 | RTWTSCDVICLGICLRSLAK | inactive
158 | RTYARYSMVGRLTMTSTRCE | inactive
